The target of one data set is T1, HpxO (Klebsiella pneumoniae, UniProt A6T923).
T1 sequence (A6T923 1-384): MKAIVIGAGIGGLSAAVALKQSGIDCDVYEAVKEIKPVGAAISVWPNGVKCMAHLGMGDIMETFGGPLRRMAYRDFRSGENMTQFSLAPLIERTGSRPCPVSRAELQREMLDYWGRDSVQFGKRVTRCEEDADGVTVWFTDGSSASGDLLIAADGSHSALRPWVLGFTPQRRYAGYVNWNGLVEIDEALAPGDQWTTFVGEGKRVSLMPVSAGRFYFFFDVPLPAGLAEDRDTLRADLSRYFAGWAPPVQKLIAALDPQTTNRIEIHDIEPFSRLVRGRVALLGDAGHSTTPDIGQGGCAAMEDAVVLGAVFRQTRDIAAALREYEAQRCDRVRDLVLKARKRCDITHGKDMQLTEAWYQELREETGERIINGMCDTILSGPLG
The data set is described as follows: steady-state rate against NADPH, no saturation. As to conditions: read-out: Km,NADPH; urate as co-substrate; printed as lower limit. In kind it is biochemical.

Substrate in the data set “purified protein”: O=c1[nH]c(=O)c2[nH]c(=O)[nH]c2[nH]1
The data set is described as follows: purified protein. The data set is classed as biochemical, Klebsiella pneumoniae. Conditions: NADH as co-substrate, saturating (1.5 mM).

As usually defined, the Km is the concentration of substrate that gives half-maximal velocity. What is called kcat is the number of substrate molecules converted per active site and unit of time at saturation.

On to `NC(=O)C1=CN([C@@H]2O[C@H](COP(=O)(O)OP(=O)(O)OC[C@H]3O[C@@H](n4cnc5c(N)ncnc54)[C@H](OP(=O)(O)O)[C@@H]3O)[C@@H](O)[C@H]2O)C=CC1` [NADPH], for which the Km on HpxO is above 1000 µM.

B1: HpxO (Klebsiella pneumoniae subsp. pneumoniae MGH 78578) (protein)
chain: MKAIVIGAGIGGLSAAVALKQSGIDCDVYEAVKEIKPVGAAISVWPNGVKCMAHLGMGDIMETFGGPLRRMAYRDFRSGENMTQFSLAPLIERTGSRPCPVSRAELQREMLDYWGRDSVQFGKRVTRCEEDADGVTVWFTDGSSASGDLLIAADGSHSALRPWVLGFTPQRRYAGYVNWNGLVEIDEALAPGDQWTTFVGEGKRVSLMPVSAGRFYFFFDVPLPAGLAEDRDTLRADLSRYFAGWAPPVQKLIAALDPQTTNRIEIHDIEPFSRLVRGRVALLGDAGHSTTPDIGQGGCAAMEDAVVLGAVFRQTRDIAAALREYEAQRCDRVRDLVLKARKRCDITHGKDMQLTEAWYQELREETGERIINGMCDTILSGPLG
On to B1, for which, in the data set “purified protein”, the Km is 42 ± 8 µM and the kcat is 42 ± 2 s⁻¹.

Values taken from PMC2842088 (Biochemistry, 2009).
